Reference: PMC5410337, “Anti-cancer effect of novel PAK1 inhibitor via induction of PUMA-mediated cell death and p21-mediated cell cycle arrest” (Oncotarget, 2017)

Molecular target: T1, recombinant full-length human PUMA (residue 1-193) (human, UniProt Q9BXH1 1-193)
T1 construct: Expressed as a GST fusion from pGEX-TEV (TEV site present); also called PUMA protein
T1 sequence (looked up): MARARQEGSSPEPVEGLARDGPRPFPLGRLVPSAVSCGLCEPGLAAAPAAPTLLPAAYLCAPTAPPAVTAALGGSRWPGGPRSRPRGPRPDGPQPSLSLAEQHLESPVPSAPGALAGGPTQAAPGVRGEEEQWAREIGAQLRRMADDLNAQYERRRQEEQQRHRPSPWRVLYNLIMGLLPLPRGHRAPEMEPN
Assay: ELISA; PAK1 recombinant protein immobilised on a 96-well plate with 0.5% paraformaldehyde; chemicals (25 or 50 uM) added, then PUMA protein, 2 hr; detected with anti-PUMA antibody and anti-rabbit IgG-HRP, absorbance at 450 nm
Details: both partners purified

B1: GST-PAK1 N-terminal domain (residues 70-149) (domain or fragment, human, UniProt Q13153 70-149, looked up)
chain: KERPEISLPSDFEHTIHVGFDAVTGEFTGMPEQWARLLQTSNITKSEQKKNPQAVLDVLEFYNSKKTSNSQKYMSFTDKS
notes: Cloned in pGEX-TEV (pGEX-4T1 with a TEV site); pGEX vectors put GST at the N-terminus (surmised); GST is kept on agarose beads in the pull-downs; the discussion says the N-terminal region of PAK1 was used for the screening; also called PAK1 recombinant protein; N-terminal region of PAK1
- binding result: binds
